According to patent publication US20210292422A1 (SURROZEN, published 2021):

T1: LRP6E1E2 (UniProt O75581 20-630)
T1 construct: domain: E1E2; also called LRP6 E1E2 domains
T1 sequence (looked up): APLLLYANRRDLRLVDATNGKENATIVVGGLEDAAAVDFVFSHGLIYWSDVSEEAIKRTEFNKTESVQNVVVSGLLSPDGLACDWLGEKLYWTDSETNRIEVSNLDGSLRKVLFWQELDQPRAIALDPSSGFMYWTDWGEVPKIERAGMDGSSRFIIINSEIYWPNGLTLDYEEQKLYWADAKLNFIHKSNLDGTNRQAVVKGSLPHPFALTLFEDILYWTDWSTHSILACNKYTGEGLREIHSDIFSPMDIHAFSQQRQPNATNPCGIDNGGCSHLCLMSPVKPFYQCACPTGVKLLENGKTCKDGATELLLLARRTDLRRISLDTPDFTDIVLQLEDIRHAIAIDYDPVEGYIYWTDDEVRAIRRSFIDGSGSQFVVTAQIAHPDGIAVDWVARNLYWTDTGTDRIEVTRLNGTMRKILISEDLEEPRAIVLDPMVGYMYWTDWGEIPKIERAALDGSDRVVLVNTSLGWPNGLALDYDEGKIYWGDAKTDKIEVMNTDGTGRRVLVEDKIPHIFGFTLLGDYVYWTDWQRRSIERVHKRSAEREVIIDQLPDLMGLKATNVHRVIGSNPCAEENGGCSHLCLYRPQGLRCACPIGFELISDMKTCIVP

T2: FZD5 (UniProt Q13467 28-150, limits assumed)
T2 construct: also called Frizzled 5
T2 sequence (looked up): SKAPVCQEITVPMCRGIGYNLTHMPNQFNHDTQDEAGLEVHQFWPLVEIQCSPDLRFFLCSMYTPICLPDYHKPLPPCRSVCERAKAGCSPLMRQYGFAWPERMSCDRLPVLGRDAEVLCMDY


Assays:
LRP6E1E2 = molecular target: T1, LRP6E1E2; assay: BLI (Octet), FIG. 11B
FZD7 = FZD7 (UniProt O75084 44-163); assay: column 'Specificity (Clone name)' of the component table; method not given there
FZD5 = molecular target: T2, FZD5; assay: as above

binding result (LRP6E1E2)	binding result (FZD7)	binding result (FZD5)	Binder
binds	–	–	L1:5:F1:Fc (bispecific antibody) DVKLVESGGGLVKLGGSLRLSCAASGFSFSTSYMSWVRQTPEKRLELVAAINLNGGSTYYSDTVKGRFTISRDNAKNTLYLQMSSLKSEDTAFYYCASELAGYGTPFAYWGQGTLVTVSAGSAASGSSGGSSSGADIVLTQSPATLSVTPGDSVSLSCKASQSISYNLHWYQQKSHESPRLLIKYTSQSISGIPSRFSGSGSGTDFTLTINNVETEDFGMYFCQQSNSWPLTFGAGTKLEVKGSGSGEVQLVESGGGLVQPGGSLRLSCAASGFTFSHYTLSWVRQAPGKGLEWVSVISGDGSYTYYADSVKGRFTISSDNSKNTLYLQMNSLRAEDTAVYYCARNFIKYVFANWGQGTLVTVSSGGGGSGGGGSGGGGSDIELTQPPSVSVAPGQTARISCSGDNIGSFYVHWYQQKPGQAPVLVIYDKSNRPSGIPERFSGSNSGNTATLTISGTQAEDEADYYCQSYANTLSLVFGGGTKLTVLGSGSGDKTHTCPPCPAPEAAGGPSVFLFPPKPKDTLMISRTPEVTCVVVDVSHEDPEVKFNWYVDGVEVHNAKTKPREEQYNSTYRVVSVLTVLHQDWLNGKEYKCKVSNKALGAPIEKTISKAKGQPREPQVYTLPPSREEMTKNQVSLTCLVKGFYPSDIAVEWESNGQPENNYKTTPPVLDSDGSFFLYSKLTVDKSRWQQGNVFSCSVMHEALHNHYTQKSLSLSPGK
binds	–	–	F1:15:L1:Fc (bispecific antibody, 2:2 tandem scFv-Fc) EVQLVESGGGLVQPGGSLRLSCAASGFTFSHYTLSWVRQAPGKGLEWVSVISGDGSYTYYADSVKGRFTISSDNSKNTLYLQMNSLRAEDTAVYYCARNFIKYVFANWGQGTLVTVSSGGGGSGGGGSGGGGSDIELTQPPSVSVAPGQTARISCSGDNIGSFYVHWYQQKPGQAPVLVIYDKSNRPSGIPERFSGSNSGNTATLTISGTQAEDEADYYCQSYANTLSLVFGGGTKLTVLGSGSGGSGSGGSSGGDVKLVESGGGLVKLGGSLRLSCAASGFSFSTSYMSWVRQTPEKRLELVAAINLNGGSTYYSDTVKGRFTISRDNAKNTLYLQMSSLKSEDTAFYYCASELAGYGTPFAYWGQGTLVTVSAGSAASGSSGGSSSGADIVLTQSPATLSVTPGDSVSLSCKASQSISYNLHWYQQKSHESPRLLIKYTSQSISGIPSRFSGSGSGTDFTLTINNVETEDFGMYFCQQSNSWPLTFGAGTKLEVKGSGSGDKTHTCPPCPAPEAAGGPSVFLFPPKPKDTLMISRTPEVTCVVVDVSHEDPEVKFNWYVDGVEVHNAKTKPREEQYNSTYRVVSVLTVLHQDWLNGKEYKCKVSNKALGAPIEKTISKAKGQPREPQVYTLPPSREEMTKNQVSLTCLVKGFYPSDIAVEWESNGQPENNYKTTPPVLDSDGSFFLYSKLTVDKSRWQQGNVFSCSVMHEALHNHYTQKSLSLSPGK
binds	–	–	F1:5:L1:Fc (bispecific antibody, 2:2 tandem scFv-Fc) EVQLVESGGGLVQPGGSLRLSCAASGFTFSHYTLSWVRQAPGKGLEWVSVISGDGSYTYYADSVKGRFTISSDNSKNTLYLQMNSLRAEDTAVYYCARNFIKYVFANWGQGTLVTVSSGGGGSGGGGSGGGGSDIELTQPPSVSVAPGQTARISCSGDNIGSFYVHWYQQKPGQAPVLVIYDKSNRPSGIPERFSGSNSGNTATLTISGTQAEDEADYYCQSYANTLSLVFGGGTKLTVLGSGSGDVKLVESGGGLVKLGGSLRLSCAASGFSFSTSYMSWVRQTPEKRLELVAAINLNGGSTYYSDTVKGRFTISRDNAKNTLYLQMSSLKSEDTAFYYCASELAGYGTPFAYWGQGTLVTVSAGSAASGSSGGSSSGADIVLTQSPATLSVTPGDSVSLSCKASQSISYNLHWYQQKSHESPRLLIKYTSQSISGIPSRFSGSGSGTDFTLTINNVETEDFGMYFCQQSNSWPLTFGAGTKLEVKGSGSGDKTHTCPPCPAPEAAGGPSVFLFPPKPKDTLMISRTPEVTCVVVDVSHEDPEVKFNWYVDGVEVHNAKTKPREEQYNSTYRVVSVLTVLHQDWLNGKEYKCKVSNKALGAPIEKTISKAKGQPREPQVYTLPPSREEMTKNQVSLTCLVKGFYPSDIAVEWESNGQPENNYKTTPPVLDSDGSFFLYSKLTVDKSRWQQGNVFSCSVMHEALHNHYTQKSLSLSPGK
–	binds	–	F2: antiFZD1, 2, 7 (R2H1) scFv (scFv) scFv: EVQLVESGGGLVQPGGSLRLSCAASGFNISSSYIHWVRQAPGKGLEWVAYIYSSYGSTYYADSVKGRFTISADTSKNTAYLQMNSLRAEDTAVYYCARASWYALDYWGQGTLVTVSSGSAASGSSGGSSSGADIQMTQSPSSLSASVGDRVTITCRASQSVSSAVAWYQQKPGKAPKLLIYSASSLYSGVPSRFSGSRSGTDFTLTISSLQPEDFATYYCQQYWYGVAPITFGQGTKVEIK
–	–	binds	F3: antiFZD5, 8 (2919) scFv (scFv) scFv: EVQLVESGGGLVQPGGSLRLSCAASGFNISYSYIHWVRQAPGKGLEWVASIYSSSGSTSYADSVKGRFTISADTSKNTAYLQMNSLRAEDTAVYYCARGAIDYWGQGTLVTVSSGGGGSGGGGSGGGGSDIQMTQSPSSLSASVGDRVTITCRASQSVSSAVAWYQQKPGKAPKLLIYSASSLYSGVPSRFSGSRSGTDFTLTISSLQPEDFATYYCQQWYSSGHVLITFGQGTKVEIK
binds	–	–	F1:10:L1:Fc (bispecific antibody, 2:2 tandem scFv-Fc) EVQLVESGGGLVQPGGSLRLSCAASGFTFSHYTLSWVRQAPGKGLEWVSVISGDGSYTYYADSVKGRFTISSDNSKNTLYLQMNSLRAEDTAVYYCARNFIKYVFANWGQGTLVTVSSGGGGSGGGGSGGGGSDIELTQPPSVSVAPGQTARISCSGDNIGSFYVHWYQQKPGQAPVLVIYDKSNRPSGIPERFSGSNSGNTATLTISGTQAEDEADYYCQSYANTLSLVFGGGTKLTVLGSGSGGSGSGDVKLVESGGGLVKLGGSLRLSCAASGFSFSTSYMSWVRQTPEKRLELVAAINLNGGSTYYSDTVKGRFTISRDNAKNTLYLQMSSLKSEDTAFYYCASELAGYGTPFAYWGQGTLVTVSAGSAASGSSGGSSSGADIVLTQSPATLSVTPGDSVSLSCKASQSISYNLHWYQQKSHESPRLLIKYTSQSISGIPSRFSGSGSGTDFTLTINNVETEDFGMYFCQQSNSWPLTFGAGTKLEVKGSGSGDKTHTCPPCPAPEAAGGPSVFLFPPKPKDTLMISRTPEVTCVVVDVSHEDPEVKFNWYVDGVEVHNAKTKPREEQYNSTYRVVSVLTVLHQDWLNGKEYKCKVSNKALGAPIEKTISKAKGQPREPQVYTLPPSREEMTKNQVSLTCLVKGFYPSDIAVEWESNGQPENNYKTTPPVLDSDGSFFLYSKLTVDKSRWQQGNVFSCSVMHEALHNHYTQKSLSLSPGK
binds	–	–	L1:10:F1:Fc (bispecific antibody, 2:2 tandem scFv-Fc) DVKLVESGGGLVKLGGSLRLSCAASGFSFSTSYMSWVRQTPEKRLELVAAINLNGGSTYYSDTVKGRFTISRDNAKNTLYLQMSSLKSEDTAFYYCASELAGYGTPFAYWGQGTLVTVSAGSAASGSSGGSSSGADIVLTQSPATLSVTPGDSVSLSCKASQSISYNLHWYQQKSHESPRLLIKYTSQSISGIPSRFSGSGSGTDFTLTINNVETEDFGMYFCQQSNSWPLTFGAGTKLEVKGSGSGGSGSGEVQLVESGGGLVQPGGSLRLSCAASGFTFSHYTLSWVRQAPGKGLEWVSVISGDGSYTYYADSVKGRFTISSDNSKNTLYLQMNSLRAEDTAVYYCARNFIKYVFANWGQGTLVTVSSGGGGSGGGGSGGGGSDIELTQPPSVSVAPGQTARISCSGDNIGSFYVHWYQQKPGQAPVLVIYDKSNRPSGIPERFSGSNSGNTATLTISGTQAEDEADYYCQSYANTLSLVFGGGTKLTVLGSGSGDKTHTCPPCPAPEAAGGPSVFLFPPKPKDTLMISRTPEVTCVVVDVSHEDPEVKFNWYVDGVEVHNAKTKPREEQYNSTYRVVSVLTVLHQDWLNGKEYKCKVSNKALGAPIEKTISKAKGQPREPQVYTLPPSREEMTKNQVSLTCLVKGFYPSDIAVEWESNGQPENNYKTTPPVLDSDGSFFLYSKLTVDKSRWQQGNVFSCSVMHEALHNHYTQKSLSLSPGK
binds	–	–	L1:15:F1:Fc (bispecific antibody, 2:2 tandem scFv-Fc) DVKLVESGGGLVKLGGSLRLSCAASGFSFSTSYMSWVRQTPEKRLELVAAINLNGGSTYYSDTVKGRFTISRDNAKNTLYLQMSSLKSEDTAFYYCASELAGYGTPFAYWGQGTLVTVSAGSAASGSSGGSSSGADIVLTQSPATLSVTPGDSVSLSCKASQSISYNLHWYQQKSHESPRLLIKYTSQSISGIPSRFSGSGSGTDFTLTINNVETEDFGMYFCQQSNSWPLTFGAGTKLEVKGSGSGGSGSGGSSGGEVQLVESGGGLVQPGGSLRLSCAASGFTFSHYTLSWVRQAPGKGLEWVSVISGDGSYTYYADSVKGRFTISSDNSKNTLYLQMNSLRAEDTAVYYCARNFIKYVFANWGQGTLVTVSSGGGGSGGGGSGGGGSDIELTQPPSVSVAPGQTARISCSGDNIGSFYVHWYQQKPGQAPVLVIYDKSNRPSGIPERFSGSNSGNTATLTISGTQAEDEADYYCQSYANTLSLVFGGGTKLTVLGSGSGDKTHTCPPCPAPEAAGGPSVFLFPPKPKDTLMISRTPEVTCVVVDVSHEDPEVKFNWYVDGVEVHNAKTKPREEQYNSTYRVVSVLTVLHQDWLNGKEYKCKVSNKALGAPIEKTISKAKGQPREPQVYTLPPSREEMTKNQVSLTCLVKGFYPSDIAVEWESNGQPENNYKTTPPVLDSDGSFFLYSKLTVDKSRWQQGNVFSCSVMHEALHNHYTQKSLSLSPGK
–	binds	binds	F1: antiFZD1, 2, 7, 5, 8 (18R5) scFv (scFv) scFv: EVQLVESGGGLVQPGGSLRLSCAASGFTFSHYTLSWVRQAPGKGLEWVSVISGDGSYTYYADSVKGRFTISSDNSKNTLYLQMNSLRAEDTAVYYCARNFIKYVFANWGQGTLVTVSSGGGGSGGGGSGGGGSDIELTQPPSVSVAPGQTARISCSGDNIGSFYVHWYQQKPGQAPVLVIYDKSNRPSGIPERFSGSNSGNTATLTISGTQAEDEADYYCQSYANTLSLVFGGGTKLTVL
